Marks after values point to notes of the source that are not given here.
Key:
wt-EGFR = target: T1, wt-EGFR (Homo sapiens, UniProt P00533); test: Scatchard analysis of 125I-EGF binding, BaF/3 wt-EGFR
T1 construct: […]; expressed in transfected cells
Protocol: (§1) Single point mutations of the wild-type EGFR were generated using a site-directed mutagenesis kit (Stratagene, La Jolla, Calif.). The template for each mutagenesis was the human EGFR cDNA; (24)) containing the leader sequence followed by a FLAG tag coding sequence, in the mammalian expression vector pcDNA3 (Invitrogen, Carlsbad, Calif.) as described in (4). The automated nucleotide sequencing of each construct was performed to confirm the integrity of each EGF receptor mutation. EGFR expression constructs were transiently expressed in 293 cells (American Type Culture Collection, Manassas, Va.) and the presence of receptor protein determined by staining with 528 and M2 antibodies to confirm expression at the cell surface and to ensure protein folding occurred appropriately (data not shown).
(§2) Wild-type and mutant EGFRs constructs were transfected into the IL-3-dependent murine hemopoietic cell line BaF/3 as described previously (25). Transfected cells were selected in G418 for 10 days. Viable cells were screened for EGFR expression by FACS analysis on a FACStar (Beckton and Dickinson, Franklin Lakes, N.J.) using antibodies to the flag tag (M2: 10 μg/ml in PBS/5% FCS/5 mMEDTA) and/or to the EGFR extracellular domain (mAb528: 10 μg/ml in PBS/5% FCS/5 mMEDTA) followed by Alexa 488-labelled anti-mouse Ig (1:400 final dilution). Background fluorescence was determined by incubating the cells with an irrelevant, class matched primary antibody. Positive pools were sorted for the appropriate level of EGFR expression on a FACS-DIVA (Becton and Dickinson). After final selection, mRNA was isolated from each cell line and all mutations in the EGFR were confirmed by PCR annalysis. All cells were routinely passaged in RPMI/10% FCS/10% WEHI3B conditioned medium (26) and 1.5 mg/ml G418.
(§3) Murine EGF, purified from mouse submaxillary glands (27), was iodinated using Iodogen (28) to a specific activity of 5-8×10^5 cpm/pmol. Ligand binding to cells expressing the wt or mutant EGFR was determined at room temperature in the presence of the […] (PAO) (29) by cold saturation experiments. Briefly, cells were incubated in PBS/1% BSA/30 μM PAO with or without increasing amounts of unlabelled EGF (20 pM-5.12 nM) and with a constant amount (300 pM) of ^125I EGF. Non-specific binding was determined using a 500-fold excess of unlabelled EGF over ^125I-EGF. All experimental points were prepared in triplicate. At the end of the incubation, the cells were pelleted and washed twice in ice-cold PBS before transferring to fresh tubes for counting in a Wallac WIZARD γ-counter (PerkinElmer, Boston, Mass.). Scatchard plots and estimates of ligand binding affinities and receptor numbers were obtained using the Radlig program (BioSoft, Cambridge, UK).

V^583D EGFR = target: T2, V^583D EGFR (Homo sapiens, UniProt P00533, V607D); test: Scatchard analysis of 125I-EGF binding, BaF/3 V583D; conditions: BaF/3 V^583D
T2 construct: expressed in transfected cells
Protocol: as §1, §2, §3

E^578C EGFR = target: T3, E^578C EGFR (Homo sapiens, UniProt P00533, E602C); test: Scatchard analysis of 125I-EGF binding, BaF/3 E578C; conditions: BaF/3 E^578C
T3 construct: expressed in transfected cells
Protocol: as §1
(§4) Wild-type and mutant EGFRs constructs were transfected into the IL-3-dependent murine hemopoietic cell line BaF/3 as described previously (25). […] Background fluorescence was determined by incubating the cells with an irrelevant, class matched primary antibody. […]
(§5) Murine EGF, purified from mouse submaxillary glands (27), was iodinated using Iodogen (28) to a specific activity of 5-8×10^5 cpm/pmol. Ligand binding to cells expressing the wt or mutant EGFR was determined at room temperature in the presence of the […] […] Non-specific binding was determined using a 500-fold excess of unlabelled EGF over ^125I-EGF. […]

D^563H EGFR = target: T4, D^563H EGFR (Homo sapiens, UniProt P00533, D587H); test: Scatchard analysis of 125I-EGF binding, BaF/3 D563H; conditions: BaF/3 D^563H
T4 construct: expressed in transfected cells
Protocol: as §1, §2, §3

L^245C/E^578C EGFR = target: T5, L^245C/E^578C EGFR (Homo sapiens, UniProt P00533, E602C/L269C); test: Scatchard analysis of 125I-EGF binding, BaF/3 L245C/E578C; conditions: BaF/3 L^245C/E^578C; less than 10% of number by FACS or immunoblotting
T5 construct: expressed in transfected cells
Protocol: as §1, §4, §5

Y^246F EGFR = target: T6, Y^246F EGFR (Homo sapiens, UniProt P00533, Y270F); test: Scatchard analysis of 125I-EGF binding, BaF/3 Y246F; conditions: BaF/3 Y^246F
T6 construct: expressed in transfected cells
Protocol: as §1
as §2, with “All cells were routinely passaged in RPMI/10% FCS/10% WEHI3B conditioned medium (26) and 1.5 mg/ml G418.” left out
as §5

Y^246D EGFR = target: T7, Y^246D EGFR (Homo sapiens, UniProt P00533, Y270D); test: Scatchard analysis of 125I-EGF binding, BaF/3 Y246D; conditions: BaF/3 Y^246D
T7 construct: expressed in transfected cells
Protocol: as §1
as §2, with “All cells were routinely passaged in RPMI/10% FCS/10% WEHI3B conditioned medium (26) and 1.5 mg/ml G418.” left out
as §5

Y^246W EGFR = target: T8, Y^246W EGFR (Homo sapiens, UniProt P00533, Y270W); test: Scatchard analysis of 125I-EGF binding, BaF/3 Y246W; conditions: BaF/3 Y^246W
T8 construct: expressed in transfected cells
Protocol: as §1
as §2, with “All cells were routinely passaged in RPMI/10% FCS/10% WEHI3B conditioned medium (26) and 1.5 mg/ml G418.” left out
as §5

[1] = high affinity sites, listed as 125I-EGF

Substance: EGF: Murine EGF purified from mouse submaxillary glands, iodinated for binding; EGFR ligand
- R/cell (from Bmax) (wt-EGFR): 3.4 +/− 0.7 R/cell × 10^−4
- [EGF] at which 500R/cell are occupied (wt-EGFR; calculated from Kd and Bmax): ~15 pM
- % of sites (Kd1) (wt-EGFR; [1]): 2.6 +/− 0.4%
- % of sites (Kd2) (wt-EGFR; low affinity sites): 97.5 +/− 0.49%
- R/cell (from Bmax) (V^583D EGFR): 3.8 +/− 0.71 R/cell × 10^−4
- [EGF] at which 500R/cell are occupied (V^583D EGFR; calculated from Kd and Bmax): <1 pM
- % of sites (Kd1) (V^583D EGFR; [1]): 12.6 +/− 4%
- % of sites (Kd2) (V^583D EGFR; low affinity sites): 90.8 +/− 1.9%
- R/cell (from Bmax) (E^578C EGFR): 3.45 +/− 0.12 R/cell × 10^−4
- [EGF] at which 500R/cell are occupied (E^578C EGFR; calculated from Kd and Bmax): ~80 pM
- R/cell (from Bmax) (D^563H EGFR): 2.3 +/− 0.8 R/cell × 10^−4
- [EGF] at which 500R/cell are occupied (D^563H EGFR; calculated from Kd and Bmax): 8 pM
- % of sites (Kd1) (D^563H EGFR; high affinity sites): 4.4 +/− 0.7) %
- % of sites (Kd2) (D^563H EGFR; low affinity sites): 96.4 +/− 0.7%
- R/cell (from Bmax) (L^245C/E^578C EGFR): 0.37 +/− 0.002^b R/cell × 10^−4
- % of sites (Kd2) (Y^246F EGFR): (100) %
- R/cell (from Bmax) (Y^246F EGFR): 3.0 +/− 0.2 R/cell × 10^−4
- [EGF] at which 500R/cell are occupied (Y^246F EGFR; calculated from Kd and Bmax): 30 pM
- % of sites (Kd2) (Y^246D EGFR): (100) %
- R/cell (from Bmax) (Y^246D EGFR): 1.2 +/− 0.1 R/cell × 10^−4
- [EGF] at which 500R/cell are occupied (Y^246D EGFR; calculated from Kd and Bmax): 400 pM
- % of sites (Kd2) (Y^246W EGFR): (100) %
- R/cell (from Bmax) (Y^246W EGFR): 2.9 +/− 0.2 R/cell × 10^−4
- [EGF] at which 500R/cell are occupied (Y^246W EGFR; calculated from Kd and Bmax): ~60 pM
